This series has as its target Factor X, P00742.

Sequence of Factor X, P00742 (P00742 whole entry, looked up): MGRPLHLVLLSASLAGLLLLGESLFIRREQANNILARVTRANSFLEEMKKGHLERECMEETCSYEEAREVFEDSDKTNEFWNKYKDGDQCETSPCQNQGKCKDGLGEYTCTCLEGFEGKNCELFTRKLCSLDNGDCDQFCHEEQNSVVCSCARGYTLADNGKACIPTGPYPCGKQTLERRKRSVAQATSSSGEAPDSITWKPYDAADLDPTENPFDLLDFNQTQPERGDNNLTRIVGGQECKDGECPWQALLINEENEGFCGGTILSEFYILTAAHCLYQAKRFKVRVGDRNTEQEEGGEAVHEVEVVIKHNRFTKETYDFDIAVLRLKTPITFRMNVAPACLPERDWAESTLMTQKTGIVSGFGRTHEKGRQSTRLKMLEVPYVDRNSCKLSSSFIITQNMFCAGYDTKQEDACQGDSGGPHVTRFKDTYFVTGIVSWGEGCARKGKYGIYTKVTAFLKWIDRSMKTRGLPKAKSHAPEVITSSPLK

B1: desialylated wild-type Factor VII (dWT VIIa) (protein)
chain 1: ANAFLEELRPGSLERECKEEQCSFEEAREIFKDAERTKLFWISYSDGDQCASSPCQNGGSCKDQLQSYICFCLPAFEGRNCETHKDDQLICVNENGGCEQYCSDHTGTKRSCRCHEGYSLLADGVSCTPTVEYPCGKIPILEKRNASKPQGR
chain 2: IVGGKVCPKGECPWQVLLLVNGAQLCGGTLINTIWVVSAAHCFDKIKNWRNLIAVLGEHDLSEHDGDEQSRRVAQVIIPSTYVPGTTNHDIALLRLHQPVVLTDHVVPLCLPERTFSERTLAFVRFSLVSGWGQLLDRGATALELMVLNVPRLMTQDCLQQSRKVGDSPNITEYMFCAGYSDGSKDSCKGDSGGPHATHYRGTWYLTGIVSWGQGCATVGHFGVYTRVSQYIEWLQKLMRSEPRPGVLLRAPFP
Regarding B1, the “Michaelis Menten kinetics of Factor X activation, Factor X titrated in the presence of sTF-Factor VII complexes (0.5 nM Factor VII, 125 nM sTF)” value is reported as “dWT VIIa (dF7) can activate Factor X more effectively (approximately 2-fold) than wild-type Factor VII (F7)”.

(Values after patent publication US20150344863.)
